Two substances from publication PMC11323955 can be followed below.

The target of the assay is MBP-MlCYC2A (M. lewisii). Put plainly: SPR. On the technique in general: In SPR one partner is held on a chip, and binding of the other changes the refractive index at the surface.

One may read the Kd as the concentration at which binding is half-saturated. Read a high Kd as a looser complex.

On to GST-MlBOP (natural protein), for which the equilibrium dissociation constant (Kd) turned out to be 1.44 µM. The same measure for “GST-bop-1 (GST-tagged MlBOP with the H39L point mutation) (natural protein)”: 0.968 µM.
